In the RNAGym collection of RNA variant scans (doi:10.7554/elife.80360):

B1: Twister Ribozyme (parent)
chain: AACACUGCCAAUGCCGGUCCCAAGCCCGGAUAAAAGUGGAGGGGGCGG

Variants of: B1
Test: self-cleavage, relative activity (ratio to wild type); higher = more cleavage; co-transcriptional

Variant | self-cleavage
AACACUGCCAAUGCCGGUCCCAAGCCCGGAUAAAAGUGGCGGGGACGG [A40C G45A] | 0.23
AACACUGCCAAUGCCGGUCCCAAGCCCGGAUAAAAGUGGCGGGGCCGG [A40C G45C] | 0.154
AACACUGCCAAUGCCGGUCCCAAGCCCGGAUAAAAGUGGCGGGGUCGG [A40C G45U] | 0.171
AACACUGCCAAUGCCGGUCCCAAGCCCGGAUAAAAGUGGGGGGGGGGG [A40G C46G] | 0.184
AACACUGCCAAUGCCGGUCCCAAGCCCGGAUAAAAGUGCAGGUGGCGG [G39C G43U] | 0.112
AACACUGCCAAUGCCGGUCCCAAGCCCGGAUAAAAGUGCAGGCGGCGG [G39C G43C] | 0.0898
AACACUGCCAAUGCCGGUCCCAAGCCCGGAUAAAAGUGGAUGUGGCGG [G41U G43U] | 0.147
AACACUGCCAAUGCCGGUCCCAAGCCCGGAUAAAAGUGGUGGGGGCAG [A40U G47A] | 0.164
AACACUGCCAAUGCCGGUCCCAAGCCCGGAUAAAAGUGGAAGGGGCUG [G41A G47U] | 0.236
AACACUGCCAAUGCCGGUCCCAAGCCCGGAUAAAAGUGGAUGGCGCGG [G41U G44C] | 0.218
AACACUGCCAAUGCCGGUCCCAAGCCCGGAUAAAAGUGGAUAGGGCGG [G41U G42A] | 0.136
AACACUGCCAAUGCCGGUCCCAAGCCCGGAUAAAAGUGGACGGGGCUG [G41C G47U] | 0.149
AACACUGCCAAUGCCGGUCCCAAGCCCGGAUAAAAGUGCAGGGGGCCG [G39C G47C] | 0.167
AACACUGCCAAUGCCGGUCCCAAGCCCGGAUAAAAGUGCAGGGGGCUG [G39C G47U] | 0.163
AACACUGCCAAUGCCGGUCCCAAGCCCGGAUAAAAGUGGUGGUGGCGG [A40U G43U] | 0.0936
AACACUGCCAAUGCCGGUCCCAAGCCCGGAUAAAAGUGGCGGUGGCGG [A40C G43U] | 0.136
AACACUGCCAAUGCCGGUCCCAAGCCCGGAUAAAAGUGGCGGAGGCGG [A40C G43A] | 0.138
AACACUGCCAAUGCCGGUCCCAAGCCCGGAUAAAAGUGCAUGGGGCGG [G39C G41U] | 0.122
AACACUGCCAAUGCCGGUCCCAAGCCCGGAUAAAAGUGCAGGGGGCGU [G39C G48U] | 0.198
AACACUGCCAAUGCCGGUCCCAAGCCCGGAUAAAAGUGCAGGGGGCGC [G39C G48C] | 0.161
AACACUGCCAAUGCCGGUCCCAAGCCCGGAUAAAAGUGGAUGGGGCGG [G41U] | 0.752
AACACUGCCAAUGCCGGUCCCAAGCCCGGAUAAAAGUGGACGGGGCGG [G41C] | 0.326
AACACUGCCAAUGCCGGUCCCAAGCCCGGAUAAAAGUGGAAGGGGCGG [G41A] | 0.665
AACACUGCCAAUGCCGGUCCCAAGCCCGGAUAAAAGUGGGGGGGGCAG [A40G G47A] | 0.102
AACACUGCCAAUGCCGGUCCCAAGCCCGGAUAAAAGUGGGGGGGGCCG [A40G G47C] | 0.192
AACACUGCCAAUGCCGGUCCCAAGCCCGGAUAAAAGUGGUGCGGGCGG [A40U G42C] | 0.157
AACACUGCCAAUGCCGGUCCCAAGCCCGGAUAAAAGUGGUGAGGGCGG [A40U G42A] | 0.136

Variant | self-cleavage
AACACUGCCAAUGCCGGUCCCAAGCCCGGAUAAAAGUGUAGCGGGCGG [G39U G42C] | 0.133
AACACUGCCAAUGCCGGUCCCAAGCCCGGAUAAAAGUGCAGGGGGAGG [G39C C46A] | 0.13
AACACUGCCAAUGCCGGUCCCAAGCCCGGAUAAAAGUGCAGGGGGGGG [G39C C46G] | 0.126
AACACUGCCAAUGCCGGUCCCAAGCCCGGAUAAAAGUGGAAGGGGCGU [G41A G48U] | 0.511
AACACUGCCAAUGCCGGUCCCAAGCCCGGAUAAAAGUGGGUGGGGCGG [A40G G41U] | 0.166
AACACUGCCAAUGCCGGUCCCAAGCCCGGAUAAAAGUGGCGGGGGAGG [A40C C46A] | 0.202
AACACUGCCAAUGCCGGUCCCAAGCCCGGAUAAAAGUGGAGAGGGCGG [G42A] | 0.516
AACACUGCCAAUGCCGGUCCCAAGCCCGGAUAAAAGUGCAGGGUGCGG [G39C G44U] | 0.169
AACACUGCCAAUGCCGGUCCCAAGCCCGGAUAAAAGUGUGGGGGGCGG [G39U A40G] | 0.128
AACACUGCCAAUGCCGGUCCCAAGCCCGGAUAAAAGUGUUGGGGGCGG [G39U A40U] | 0.158
AACACUGCCAAUGCCGGUCCCAAGCCCGGAUAAAAGUGUCGGGGGCGG [G39U A40C] | 0.134
AACACUGCCAAUGCCGGUCCCAAGCCCGGAUAAAAGUGGACGGGUCGG [G41C G45U] | 0.429
AACACUGCCAAUGCCGGUCCCAAGCCCGGAUAAAAGUGGAGAGAGCGG [G42A G44A] | 0.377
AACACUGCCAAUGCCGGUCCCAAGCCCGGAUAAAAGUGGUUGGGGCGG [A40U G41U] | 0.145
AACACUGCCAAUGCCGGUCCCAAGCCCGGAUAAAAGUGGUCGGGGCGG [A40U G41C] | 0.17
AACACUGCCAAUGCCGGUCCCAAGCCCGGAUAAAAGUGGCGGGCGCGG [A40C G44C] | 0.226
AACACUGCCAAUGCCGGUCCCAAGCCCGGAUAAAAGUGUAGGGGGAGG [G39U C46A] | 0.19
AACACUGCCAAUGCCGGUCCCAAGCCCGGAUAAAAGUGUAGGGGGGGG [G39U C46G] | 0.172
AACACUGCCAAUGCCGGUCCCAAGCCCGGAUAAAAGUGUAGGGGGUGG [G39U C46U] | 0.23
AACACUGCCAAUGCCGGUCCCAAGCCCGGAUAAAAGUGGGGCGGGCGG [A40G G42C] | 0.215
AACACUGCCAAUGCCGGUCCCAAGCCCGGAUAAAAGUGGGGAGGGCGG [A40G G42A] | 0.113
AACACUGCCAAUGCCGGUCCCAAGCCCGGAUAAAAGUGGAGAGGGAGG [G42A C46A] | 0.251
AACACUGCCAAUGCCGGUCCCAAGCCCGGAUAAAAGUGGAGAGGGUGG [G42A C46U] | 0.349
AACACUGCCAAUGCCGGUCCCAAGCCCGGAUAAAAGUGGGGGGGGCGU [A40G G48U] | 0.131
AACACUGCCAAUGCCGGUCCCAAGCCCGGAUAAAAGUGGAUGGGGCGU [G41U G48U] | 0.584
AACACUGCCAAUGCCGGUCCCAAGCCCGGAUAAAAGUGGAUGGGGCGC [G41U G48C] | 0.738
AACACUGCCAAUGCCGGUCCCAAGCCCGGAUAAAAGUGUAGGGGGCUG [G39U G47U] | 0.187
